B1: Cyclic AMP-dependent transcription factor ATF-4 (Homo sapiens), P18848 (parent)
chain: MTEMSFLSSEVLVGDLMSPFDQSGLGAEESLGLLDDYLEVAKHFKPHGFSSDKAKAGSSEWLAVDGLVSPSNNSKEDAFSGTDWMLEKMDLKEFDLDALLGIDDLETMPDDLLTTLDDTCDLFAPLVQETNKQPPQTVNPIGHLPESLTKPDQVAPFTFLQPLPLSPGVLSSTPDHSFSLELGSEVDITEGDRKPDYTAYVAMIPQCIKEEDTPSDNDSGICMSPESYLGSPQHSPSTRGSPNRSLPSPGVLCGSARPKPYDPPGEKMVAAKVKGEKLDKKLKKMEQNKTAATRYRQKKRAEQEALTGECKELEKKNEALKERADSLAKEIQYLKDLIEEVRKARGKKRVP
B2: NADPH-dependent diflavin oxidoreductase 1 (Homo sapiens), Q9UHB4 (parent)
chain: MPSPQLLVLFGSQTGTAQDVSERLGREARRRRLGCRVQALDSYPVVNLINEPLVIFVCATTGQGDPPDNMKNFWRFIFRKNLPSTALCQMDFAVLGLGDSSYAKFNFVAKKLHRRLLQLGGSALLPVCLGDDQHELGPDAAVDPWLRDLWDRVLGLYPPPPGLTEIPPGVPLPSKFTLLFLQEAPSTGSEGQRVAHPGSQEPPSESKPFLAPMISNQRVTGPSHFQDVRLIEFDILGSGISFAAGDVVLIQPSNSAAHVQRFCQVLGLDPDQLFMLQPREPDVSSPTRLPQPCSMRHLVSHYLDIASVPRRSFFELLACLSLHELEREKLLEFSSAQGQEELFEYCNRPRRTILEVLCDFPHTAAAIPPDYLLDLIPVIRPRAFSIASSLLTHPSRLQILVAVVQFQTRLKEPRRGLCSSWLASLDPGQGPVRVPLWVRPGSLAFPETPDTPVIMVGPGTGVAPFRAAIQERVAQGQTGNFLFFGCRWRDQDFYWEAEWQELEKRDCLTLIPAFSREQEQKVYVQHRLRELGSLVWELLDRQGAYFYLAGNAKSMPADVSEALMSIFQEEGGLCSPDAAAYLARLQQTRRFQTETWA
partner: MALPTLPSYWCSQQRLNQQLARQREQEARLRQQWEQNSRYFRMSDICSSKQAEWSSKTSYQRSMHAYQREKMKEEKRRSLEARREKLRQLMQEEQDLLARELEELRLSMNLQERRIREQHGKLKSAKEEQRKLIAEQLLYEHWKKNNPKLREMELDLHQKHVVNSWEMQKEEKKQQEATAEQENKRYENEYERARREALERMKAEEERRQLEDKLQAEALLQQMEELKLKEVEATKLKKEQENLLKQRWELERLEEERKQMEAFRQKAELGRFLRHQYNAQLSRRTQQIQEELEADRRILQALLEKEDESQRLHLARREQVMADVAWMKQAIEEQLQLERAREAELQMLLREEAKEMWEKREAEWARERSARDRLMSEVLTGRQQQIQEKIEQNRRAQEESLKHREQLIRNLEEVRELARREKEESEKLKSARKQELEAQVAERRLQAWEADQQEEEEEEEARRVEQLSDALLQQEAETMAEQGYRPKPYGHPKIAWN

Variants of: B1
Settings: with ldoc1_human LDOC1, O95751
Sequence of ldoc1_human LDOC1, O95751 (O95751 whole entry): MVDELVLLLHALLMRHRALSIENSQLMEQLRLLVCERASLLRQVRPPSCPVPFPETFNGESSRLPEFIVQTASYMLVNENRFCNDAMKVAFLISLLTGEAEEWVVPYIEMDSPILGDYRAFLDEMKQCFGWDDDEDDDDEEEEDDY

Variant	effect of a mutation on the interaction
T137S	with no effect
E322D	disrupting interaction strength

Next, values leading:

effect of a mutation on the interaction	Variant
with no effect	P258A
with no effect	A324V

Variants of: B1
Settings: with cc106_human CCDC106, Q9BWC9
Sequence of cc106_human CCDC106, Q9BWC9 (Q9BWC9 whole entry): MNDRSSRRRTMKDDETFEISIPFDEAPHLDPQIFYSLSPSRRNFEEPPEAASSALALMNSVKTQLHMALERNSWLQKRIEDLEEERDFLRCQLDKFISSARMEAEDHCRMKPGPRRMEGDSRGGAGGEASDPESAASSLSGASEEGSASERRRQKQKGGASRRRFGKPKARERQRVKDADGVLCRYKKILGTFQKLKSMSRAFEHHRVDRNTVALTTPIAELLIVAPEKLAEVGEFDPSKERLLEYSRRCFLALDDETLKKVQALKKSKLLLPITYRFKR

effect of a mutation on the interaction	Variant
with no effect	P258A
with no effect	A324V
disrupting interaction strength	E322D

Variants of: B1
Settings: with fbw1a_human BTRC

Variant	effect of a mutation on the interaction
T137S	with no effect
E322D	disrupting interaction strength

Next, values leading:

effect of a mutation on the interaction	Variant
with no effect	P258A
with no effect	A324V

Variants of: B1
Settings: with cc106_human CCDC106, Q9BWC9
Remark: another data set of the same source

effect of a mutation on the interaction	Variant
disrupting interaction strength	A324V

Variants of: B1
Settings: with tthy_human TTR

effect of a mutation on the interaction	Variant
with no effect	T137S

Variants of: B2
Settings: with tchp_human TCHP

effect of a mutation on the interaction	Variant
disrupting interaction strength	P281L

From IntAct's records for PubMed 31515488
